# Laboratory results: patent publication US20170029844A1
# Target: Spodoptera frugiperda ABCc2 transporter (Spodoptera frugiperda)
# Test: cell-based or functional assay
substance,measurement,value
"TIC105 toxin (wild type, unmodified)","relative fluorescence of SYTOX Green, Sf9 cells expressing the SfABCc2 transporter (relative fluorescence)",57200
